Data: US20170298096A1 (CANIMGUIDE THERAPEUTICS, published 2017)

T1: His-tagged P3028 peptide (PGE73) (human)
T1 construct: also called His-tag-P3028; not shown: His-tag
T1 peptide: VFDEFKPLVEEPQNLIK

T2: His-tagged P3028 peptide (PGE73) (human)
T2 construct: albumin-derived peptide, in solution at 0.5 ug/mL; not shown: His-tag
T2 peptide: VFDEFKPLVEEPQNLIK

B1: SEQ ID NO: 552 (peptide)
peptide: KKLDTFFVYLSLFTER
notes: P28R variant on PEPSCAN card
B2: SEQ ID NO: 569 (peptide)
peptide: KKLDTFFVDLSLFTER
notes: P28R variant on PEPSCAN card
B3: SEQ ID NO: 541 (peptide)
peptide: KKLDTFFVCLSLFTER
notes: P28R variant on PEPSCAN card
B4: SEQ ID NO: 555 (peptide)
peptide: KKLDTFFVILSLFTER
notes: P28R variant on PEPSCAN card
B5: SEQ ID NO: 554 (peptide)
peptide: KKLDTFFVALSLFTER
notes: P28R variant on PEPSCAN card
B6: SEQ ID NO: 534 (peptide)
peptide: KKLDTFFVPLSLFTER
notes: P28R variant on PEPSCAN card
B7: SEQ ID NO: 562 (peptide)
peptide: KKLDTFFVLLSLFTER
notes: P28R variant on PEPSCAN card
B8: SEQ ID NO: 560 (peptide)
peptide: KKLDTFFVFLSLFTER
notes: P28R variant on PEPSCAN card
B9: SEQ ID NO: 97 (peptide)
peptide: KKLDTFFVGLSLFTER
notes: P28R variant on PEPSCAN card
B10: SEQ ID NO: 98 (peptide)
peptide: KKLDTFFVGLSLFTER
notes: P28R variant on PEPSCAN card
B11: SEQ ID NO: 537 (peptide)
peptide: KKLDTFFWKLSLFTER
notes: P28R variant on PEPSCAN card
B12: SEQ ID NO: 549 (peptide)
peptide: KKLDTFFYKLSLFTER
notes: P28R variant on PEPSCAN card
B13: SEQ ID NO: 570 (peptide)
peptide: KKLDTFFEKLSLFTER
notes: P28R variant on PEPSCAN card
B14: SEQ ID NO: 545 (peptide)
peptide: KKLDTFFSKLSLFTER
notes: P28R variant on PEPSCAN card
B15: SEQ ID NO: 540 (peptide)
peptide: KKLDTFFMKLSLFTER
notes: P28R variant on PEPSCAN card
B16: SEQ ID NO: 547 (peptide)
peptide: KKLDTFFHKLSLFTER
notes: P28R variant on PEPSCAN card
B17: SEQ ID NO: 550 (peptide)
peptide: KKLDTFFNKLSLFTER
notes: P28R variant on PEPSCAN card
B18: SEQ ID NO: 535 (peptide)
peptide: KKLDTFKVKLSLFTER
notes: P28R variant on PEPSCAN card
B19: SEQ ID NO: 536 (peptide)
peptide: KKLDTEFVKLSLFTER
notes: P28R variant on PEPSCAN card
B20: SEQ ID NO: 553 (peptide)
peptide: KKLDTDFVKLSLFTER
notes: P28R variant on PEPSCAN card
B21: SEQ ID NO: 571 (peptide)
peptide: KKLDTFFVKLSLFTFR
notes: P28R variant on PEPSCAN card
B22: SEQ ID NO: 564 (peptide)
peptide: KKLDTFFVKLSLFTIR
notes: P28R variant on PEPSCAN card
B23: SEQ ID NO: 563 (peptide)
peptide: KKLDTFFVKLSLFTSR
notes: P28R variant on PEPSCAN card
B24: SEQ ID NO: 568 (peptide)
peptide: KKLDTFFVKLSLFTTR
notes: P28R variant on PEPSCAN card
B25: SEQ ID NO: 565 (peptide)
peptide: KKLDTFFVKLSLFTVR
notes: P28R variant on PEPSCAN card
B26: SEQ ID NO: 561 (peptide)
peptide: KKLDTFFVKLSLFTAR
notes: P28R variant on PEPSCAN card
B27: SEQ ID NO: 566 (peptide)
peptide: KKLDTFFVKLSLFTNR
notes: P28R variant on PEPSCAN card
B28: SEQ ID NO: 101 (peptide)
peptide: KKLDTFFVKLSLFTGR
notes: P28R variant on PEPSCAN card
B29: SEQ ID NO: 539 (peptide)
peptide: KKLDTFFVKLSLFTWR
notes: P28R variant on PEPSCAN card
B30: SEQ ID NO: 556 (peptide)
peptide: KKLDTFFVKLSLFTCR
notes: P28R variant on PEPSCAN card
B31: SEQ ID NO: 533 (peptide)
peptide: KKLDTFFVKLSLFTEP
notes: P28R variant on PEPSCAN card
B32: SEQ ID NO: 557 (peptide)
peptide: KKLDTFFVKLSLFTES
notes: P28R variant on PEPSCAN card
B33: SEQ ID NO: 559 (peptide)
peptide: KKLDTFFVKLSLFTEC
notes: P28R variant on PEPSCAN card
B34: SEQ ID NO: 538 (peptide)
peptide: KKLDTFFVKLSLFTEA
notes: P28R variant on PEPSCAN card
B35: SEQ ID NO: 551 (peptide)
peptide: KKLDTFFVKLSLFTEW
notes: P28R variant on PEPSCAN card
B36: SEQ ID NO: 544 (peptide)
peptide: KKLDTFFVKLSLFTEL
notes: P28R variant on PEPSCAN card
B37: SEQ ID NO: 577 (peptide)
peptide: KKLDTFFVKLSLFTEE
notes: P28R variant on PEPSCAN card
B38: SEQ ID NO: 558 (peptide)
peptide: KKLDTFFVKLSLFTEI
notes: P28R variant on PEPSCAN card
B39: SEQ ID NO: 573 (peptide)
peptide: KKLDTFFVKLSLFTEQ
notes: P28R variant on PEPSCAN card
B40: SEQ ID NO: 543 (peptide)
peptide: KKLDTFFVKLSLFTEG
notes: P28R variant on PEPSCAN card
B41: SEQ ID NO: 572 (peptide)
peptide: KKLDTFFVKLSLFTED
notes: P28R variant on PEPSCAN card
B42: SEQ ID NO: 382 KKLDTFFVKLSLFNER (peptide)
peptide: KKLDTFFVKLSLFNER
B43: SEQ ID NO: 392 KKLDTFFVKLSLFTET (peptide)
peptide: KKLDTFFVKLSLFTET
B44: SEQ ID NO: 387 KKLDTFFVKLSLFTDR (peptide)
peptide: KKLDTFFVKLSLFTDR
B45: SEQ ID NO: 384 KKLDTFFVKLSLFSER (peptide)
peptide: KKLDTFFVKLSLFSER
B46: SEQ ID NO: 385 KKLDTFFVKLSLFVER (peptide)
peptide: KKLDTFFVKLSLFVER
B47: SEQ ID NO: 383 KKLDTFFVKLSLFPER (peptide)
peptide: KKLDTFFVKLSLFPER
B48: SEQ ID NO: 388 KKLDTFFVKLSLFTEF (peptide)
peptide: KKLDTFFVKLSLFTEF
B49: SEQ ID NO: 390 KKLDTFFVKLSLFTEN (peptide)
peptide: KKLDTFFVKLSLFTEN
B50: SEQ ID NO: 389 KKLDTFFVKLSLFTEK (peptide)
peptide: KKLDTFFVKLSLFTEK
B51: SEQ ID NO: 393 KKLDTFFVKLSLFTEY (peptide)
peptide: KKLDTFFVKLSLFTEY
B52: SEQ ID NO: 386 KKLDTFFVKLSLFWER (peptide)
peptide: KKLDTFFVKLSLFWER

Biological target: T1, His-tagged P3028 peptide (PGE73)
Assay: PEPSCAN ELISA; peptide on card, His-tagged P3028 in solution;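 also: bound protein detected by peroxidase colour with ABTS substrate, imaged on the peptide card by CCD camera at 405 nm, rampo units being raw OD405 readings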
Procedure: (§1) After washing, the peroxidase substrate 2,2′-azine-di-3-ethylbenzthiazoline sulfonate (ABTS) and 2 μL of 3% H2O2 were added. The binding capacity of the mAb was measured as a color development at 405 nm (optical density, OD405). The color development was quantified with a charge-coupled device (CCD)—camera and an image processing system.
(§2) The OD405-values obtained by a CCD-camera was considered as raw data values (“rampo values,” “rampo units,” or “rampo scores”). […] First the CCD-camera made a picture of the card before peroxidase coloring and then again a picture after the peroxidase coloring. […] These values were copied into an excel file and labeled as a raw data file. One follow-up manipulation was allowed. Sometimes a well can contain an air-bubble resulting in a false-positive value. If manual inspection of the cards detect an air-bubble the value are set to 0 for that well.

Row | RAMPO Score [rampo units] | Binder
1 | 198 | B1
2 | 149 | B2
3 | 220 | B3
4 | 190 | B4
5 | 191 | B5
6 | 233 | B6
7 | 166 | B7
8 | 174 | B8
9 | 188 | B9
10 | 188 | B10
11 | 228 | B11
12 | 211 | B12
13 | 139 | B13
14 | 216 | B14
15 | 221 | B15
16 | 213 | B16
17 | 203 | B17
18 | 232 | B18
19 | 229 | B19
20 | 193 | B20
21 | 137 | B21

Row | RAMPO Score [rampo units] | Binder
22 | 163 | B22
23 | 165 | B23
24 | 152 | B24
25 | 163 | B25
26 | 174 | B26
27 | 161 | B27
28 | 233 | B28
29 | 226 | B29
30 | 185 | B30
31 | 234 | B31
32 | 184 | B32
33 | 175 | B33
34 | 226 | B34
35 | 202 | B35
36 | 217 | B36
37 | 107 | B37
38 | 176 | B38
39 | 133 | B39
40 | 218 | B40
41 | 133 | B41

Biological target: T2, His-tagged P3028 peptide (PGE73)
Assay: PEPSCAN ELISA, peptide on card
Procedure: as §1, §2

Row | RAMPO Score | Binder
42 | 599 | B42
43 | 292 | B43
44 | 404 | B44
45 | 369 | B45
46 | 380 | B46
47 | 551 | B47
48 | 297 | B48
49 | 311 | B49
50 | 291 | B50
51 | 311 | B51
52 | 374 | B52
